Entries after “also recorded” stand apart in the source; their conditions may differ.
Tests used:
N-MYC = assay: Western blotting of N-MYC protein level in treated N2a cells; assay type: cell-based, murine; settings: n = 6; for N-MYC protein level (Western blotting), chronic treatment: 100 ng/mL daily for five days
Protocol: (§1) We assessed protein level and relative phosphorylation by Western blotting as in [31]. Briefly, upon a wash in PBS, we solubilized cells and tumor specimens in lysis buffer (150 mM NaCl, 50 mM HEPES, 0.5% NP40, 1% sodium-deoxycholate). After 1 h under mild agitation, we clarified the lysate by centrifugation for 20 min at 16,000× g. We performed all experimental procedures at 4 °C. We evaluated protein concentrations via Bradford assay (Bio-Rad, Hercules, CA, USA). For Western blotting experiments, we diluted an equal amount of proteins with 0.25% 5× Laemmli buffer. We separated the samples on 10% SDS-PAGE gels and transferred them onto a nitrocellulose membrane (Sigma-Aldrich) at 80 V for 120 min at 4 °C. Primary antibodies were:
Beta-actin (Santa Cruz Biotechnology, Dallas, TX, USA, sc-47778), ALK (Santa Cruz Biotechnology, Dallas, TX, USA, sc-398791), N-myc (Santa Cruz Biotechnology, Dallas, TX, USA, sc-56729), p44/42 MAPK (Erk1/2) (137F5) Rabbit mAb (Cell Signaling Technology, Danvers, MA, USA), Akt (pan) (11E7) Rabbit mAb (Cell Signaling Technology, Danvers, MA, USA), Phospho-Akt (Ser473) (D9E) XP® Rabbit mAb (Cell Signaling Technology, Danvers, MA, USA), S6 Ribosomal Protein (5G10) Rabbit mAb (Cell Signaling Technology, Danvers, MA, USA), and Negr1 (AF5394) Goat polyclonal (R&D system, Minneapolis, MN, USA). Antibodies were applied overnight in blocking buffer (20 mM Tris, pH 7.4, 150 mM NaCl, 0.1% Tween 20, and 5% nonfat dry milk). We detected proteins using the ECL prime detection system (GE Healthcare, Chicago, IL, USA) with the imaging ChemiDoc Touch system (Bio Rad, Hercules, CA, USA). We quantified the optical density of the specific bands with ImageLab 3.0 software (Bio Rad, Hercules, CA, USA).

N2a cells [1] = assay: MTT assay of N2a cell growth / vitality; assay type: cell-based, murine; settings: 5 days; for N2a cellular vitality by MTT assay at DIV5: N2a cells 2 × 10^3 cells/cm^2, 3 μM daily, normalized to vehicle (Lorlatinib) or GFP (rNegr1, PepA-1), n = 10; for N2a cellular growth by MTT assay at DIV5: naive N2a cells seeded at 2 × 10^3 cells/cm^2, 100 ng/mL daily, vs. GFP control, n = 10-12
Protocol: N2a (Neuro2a, ATCC CCL-131), HEK293 (ATCC CRL-1573), U87 MG (ATCC® HTB14), SKMEL5 (ATCC® HTB70), MCF7 ATCC® HTB-22, A549 ATCC® CCL-185, and SHSY5Y (ATCC® CRL 2266™) cells were grown in DMEM high glucose (Gibco, Thermo Fisher Scientific, Waltham, MA, USA) with 10% FBS, 1% penicillin/streptomycin, and 1% glutamine in a humidified atmosphere of 5% CO2 at 37 °C. In the soft-agar assays, we added 0.6% soft agar (Gibco, Thermo Fisher Scientific, Waltham, MA, USA) in media to 2 × 10^3 cell/cm^2 N2a cells to obtain a final concentration of 0.4% agar. We cultured the cells onto a 0.6% soft agar layer. N2a and HEK293 cells were transfected with the different constructs for 48 h using Lipofectamine 2000 (Invitrogen, Thermo Fisher Scientific Waltham, MA, USA). Stable N2a clones expressing murine Negr1 were isolated upon Neomycin selection (1 μg/mL).
We performed the 3-(4,5-dimethylthiazol-2-yl)-2,5-diphenyltetrazolium bromide (MTT) assay to appreciate culture vitality. We cultured N2a cells in a 96-well plate at a concentration of 2 × 10^3 cells/cm^2. The treatment condition is indicated in the Results Section 3. At the end of the treatment, we added the MTT solution to the cell medium at a final concentration of 0.25 mg/mL. The incubation lasted 30 min at 37 °C. Next, we removed the medium and collected the formazan precipitates in DMSO (200 μL). We measured the absorbance at 570 nm using a spectrophotometer (Varioskan LUX, Thermofisher, Waltham, MA, USA) as a proxy for cell viability. We expressed relative cell viability fold over the control condition.

N2a cells [2] = assay: Growth of subcutaneous N2a tumors in nude mice; assay type: in vivo; settings: 1 million N2a cells s.c. in CD1 nude mice; 2 ug in situ every second day from 100 mm^3 tumor volume; vs. GFP; n = 9 (PepA), n = 5 (PepA-1)
From the text: All procedures involving animals were approved by Institutional and National Agencies (authorization 559/2016-PR).

ALK = molecular target: T1, ALK (Mus musculus, UniProt P97793); assay: Western blotting of ALK protein level in treated N2a cells; assay type: cell-based, murine; settings: n = 6; for ALK protein level (Western blotting), chronic treatment: 2 × 10^3 cells/cm^2 N2a cells, 100 ng/mL daily for five days, fold over GFP
T1 construct: we evaluated ALK and N-MYC protein expression by Western blotting; endogenous in cells; host or cells: N2a (Neuro2a, ATCC CCL-131)
Protocol: as §1
Antibodies were applied overnight in blocking buffer (20 mM Tris, pH 7.4, 150 mM NaCl, 0.1% Tween 20, and 5% nonfat dry milk). We detected proteins using the ECL prime detection system (GE Healthcare, Chicago, IL, USA) with the imaging ChemiDoc Touch system (Bio Rad, Hercules, CA, USA). We quantified the optical density of the specific bands with ImageLab 3.0 software (Bio Rad, Hercules, CA, USA).

N-MYC mRNA = assay: RT-qPCR of N-MYC mRNA level in treated N2a cells; assay type: cell-based, murine; settings: 5 × 10^3 cells/cm^2 N2a cells, 100 ng/mL, 10 min to 6 h; normalized over housekeeping genes; n = 6
From the text: (§2) Total RNA was isolated from cell cultures using a Single Cell RNA Purification Kit (Norgen Thorold, ON, Canada) according to manufacturer’s instruction. After extraction, the RNA concentration was quantified with a NanoDrop 2000C spectrophotometer (Thermo Fisher Scientific, Waltham, MA, USA). After DNAse treatment (Thermo Fisher Scientific, Waltham, MA, USA, according to manufacturer’s protocol), complementary DNA (cDNA) was generated using qRT SuperMix (Bimake). The cDNAs were used for quantitative PCR (qPCR) using iTaq Universal SYBR® Green Supermix and CFX96 RealTime System (BioRad, Hercules, CA, USA) for 40 cycles. We used two independent couples of primers to assess mRNA expression levels (Table 3). All samples were measured as technical duplicates. We calculated mRNA expression levels as the average between the two couple of primers, normalized for the mathematical mean of the relative abundance of actinB and GAPDH (housekeeping genes). Data shown were produced using Bio-Rad CFX Manager 3.1 software and analyzed according to the ddCt method.

ALK mRNA = assay: RT-qPCR of ALK mRNA level in treated N2a cells; assay type: cell-based, murine; settings: 5 × 10^3 cells/cm^2 N2a cells, 100 ng/mL, 10 min to 6 h; normalized over housekeeping genes; n = 6
From the text: as §2

[3] = 2 × 10^3 cells/cm^2 N2a cells, fold over GFP
[4] = 5 × 10^3 cells/cm^2 N2a cells, 100 ng/mL, 10 min to 6 h, normalized over actin, vs. GFP

T1 sequence (P97793 19-1621): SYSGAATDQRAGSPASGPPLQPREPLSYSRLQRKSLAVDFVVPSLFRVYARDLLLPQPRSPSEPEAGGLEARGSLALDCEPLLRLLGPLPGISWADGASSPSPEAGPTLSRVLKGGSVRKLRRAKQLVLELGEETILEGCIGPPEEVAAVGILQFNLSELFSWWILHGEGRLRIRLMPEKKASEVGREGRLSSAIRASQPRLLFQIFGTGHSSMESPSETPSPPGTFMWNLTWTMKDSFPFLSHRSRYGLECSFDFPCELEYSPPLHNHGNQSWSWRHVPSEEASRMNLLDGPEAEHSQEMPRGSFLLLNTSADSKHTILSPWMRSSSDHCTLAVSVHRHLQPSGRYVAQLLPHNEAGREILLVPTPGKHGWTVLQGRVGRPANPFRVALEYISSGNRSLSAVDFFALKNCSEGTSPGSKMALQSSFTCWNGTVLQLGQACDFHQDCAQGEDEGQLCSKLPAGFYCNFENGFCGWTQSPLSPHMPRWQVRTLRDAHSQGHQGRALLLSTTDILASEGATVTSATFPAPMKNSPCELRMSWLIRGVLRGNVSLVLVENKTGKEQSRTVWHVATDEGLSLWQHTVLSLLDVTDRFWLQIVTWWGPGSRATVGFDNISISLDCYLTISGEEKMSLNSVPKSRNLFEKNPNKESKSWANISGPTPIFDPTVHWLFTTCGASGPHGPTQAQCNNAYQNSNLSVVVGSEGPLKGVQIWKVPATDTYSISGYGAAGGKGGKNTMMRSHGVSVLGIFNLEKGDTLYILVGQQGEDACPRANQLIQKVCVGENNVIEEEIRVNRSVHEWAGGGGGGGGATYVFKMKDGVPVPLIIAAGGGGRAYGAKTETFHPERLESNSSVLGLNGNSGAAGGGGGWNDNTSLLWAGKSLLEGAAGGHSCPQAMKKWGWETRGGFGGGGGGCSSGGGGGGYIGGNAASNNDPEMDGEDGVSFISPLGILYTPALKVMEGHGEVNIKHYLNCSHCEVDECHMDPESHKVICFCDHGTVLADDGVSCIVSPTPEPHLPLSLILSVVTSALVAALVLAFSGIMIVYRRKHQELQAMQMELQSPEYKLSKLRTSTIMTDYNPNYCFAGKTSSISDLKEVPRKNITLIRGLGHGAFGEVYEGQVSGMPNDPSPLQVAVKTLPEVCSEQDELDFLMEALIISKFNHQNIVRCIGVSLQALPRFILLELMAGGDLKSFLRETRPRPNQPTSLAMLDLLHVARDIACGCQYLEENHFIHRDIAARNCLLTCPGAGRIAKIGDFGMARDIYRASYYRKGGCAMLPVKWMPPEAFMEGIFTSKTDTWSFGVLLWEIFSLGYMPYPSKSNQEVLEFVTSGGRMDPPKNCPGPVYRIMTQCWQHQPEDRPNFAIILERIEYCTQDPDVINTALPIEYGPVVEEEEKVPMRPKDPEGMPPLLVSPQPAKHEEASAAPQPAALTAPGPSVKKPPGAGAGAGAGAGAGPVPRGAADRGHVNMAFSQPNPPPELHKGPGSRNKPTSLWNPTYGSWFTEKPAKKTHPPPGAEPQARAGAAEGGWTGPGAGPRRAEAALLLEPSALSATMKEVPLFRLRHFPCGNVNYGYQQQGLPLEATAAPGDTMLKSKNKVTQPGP

Row | Molecule | N-MYC protein level (Western blotting), chronic treatment at 3 μM (N-MYC; 2 × 10^3 cells/cm^2 N2a cells, 3 μM daily for five days, fold over GFP) | N2a cellular vitality by MTT assay at DIV5 (N2a cells [1]) | N-MYC protein level (Western blotting), chronic treatment (N-MYC; [3]) | Tumor growth (tumor volume, fold over day 1) (N2a cells [2]) | ALK protein level (Western blotting), chronic treatment (ALK) | N2a cellular growth by MTT assay at DIV5 (N2a cells [1]) | N-MYC mRNA level (RT-qPCR) (N-MYC mRNA) | N-MYC protein level (Western blotting), acute treatment (N-MYC; [4]) | ALK protein level (Western blotting), acute treatment (ALK; [4]) | ALK mRNA level (RT-qPCR) (ALK mRNA)
1 | C[C@H]1Oc2cc(cnc2N)-c2c(nn(C)c2C#N)CN(C)C(=O)c2ccc(F)cc21 [Lorlatinib, reference compound] | strongly reduced | impaired N2A growth to a similar extent |  |  |  |  |  |  |  | 
2 | VDFPWAAVDNMLVRKGDTAVLRCYLEDGASKGAWLNRSSIIFAGGDKWSVDPRVSISTLNKRDYSLQIQNVDVTDDGPYTCSVQTQHTPRTMQVHL [PepA, Negr1 first Ig domain, strep-FLAG tagged recombinant protein purified from HEK293 cells] |  |  | robust reduction | robust growth reduction | robust reduction | significantly reduced N2a proliferation |  |  |  | 
3 | rNegr1: Recombinant Strep-FLAG Negr1 (murine) expressed in and purified from HEK293 cells (protein, UniProt Q80Z24 32-318, looked up, Strep-FLAG tag, Recombinant Strep-FLAG Negr1 (murine) expressed in and purified from HEK293 cells) Neuronal growth regulator 1: VDFPWAAVDNMLVRKGDTAVLRCYLEDGASKGAWLNRSSIIFAGGDKWSVDPRVSISTLNKRDYSLQIQNVDVTDDGPYTCSVQTQHTPRTMQVHLTVQVPPKIYDISNDMTINEGTNVTLTCLATGKPEPVISWRHISPSAKPFENGQYLDIYGITRDQAGEYECSAENDVSFPDVKKVRVIVNFAPTIQEIKSGTVTPGRSGLIRCEGAGVPPPAFEWYKGEKRLFNGQQGIIIQNFSTRSILTVTNVTQEHFGNYTCVAANKLGTTNASLPLNPPSTAQYGITG |  | impaired N2A growth to a similar extent | did not overtly affect |  | did not overtly affect | significantly reduced N2a growth; also recorded: significantly reduced N2a proliferation | light but significant effect | reduction | reduction | did not notice an overt impact

Source: publication PMC10536585, “Negr1-Derived Peptides Trigger ALK Degradation and Halt Neuroblastoma Progression In Vitro and In Vivo” (Pharmaceutics, 2023)
